Data published in CN112538115A (BIOSION BIO TECH NANJING CO LTD, dated 2021).

Target: T1, 人BCMA-His抗原 (ACRO, Cat#BCA-H522y) (human, UniProt Q02223 1-54)
T1 construct: Bought reagent; Coated on the ELISA plate at 2 ug/ml; also called 人BCMA蛋白; 人BCMA抗原; not shown: His tag
T1 sequence (looked up): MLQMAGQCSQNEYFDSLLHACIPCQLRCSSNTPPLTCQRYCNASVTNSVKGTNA
Test: indirect ELISA, human BCMA-His coated at 2 ug/ml, detection with HRP goat anti-human Fc gamma

binding result: binds
B1: BCMA-VHH-1F7纳米抗体 (抗人BCMA纳米抗体, 含有Fc tag) (Fc fusion)
chain: EVQLVESGGGLVQAGGSLRLSCAASGGTFNNDNVGWFRQAPGKEREFVAVISWRGDGTDYADSVKGRFTISRDYAKKMVYLQMNSLQPKDTAVYYCAVGDGSRWHGAYAYWGQGTRVTVSS
notes: Expressed in Expi293F cells with an Fc tag and purified on Protein A or G; detected with anti-human Fc gamma, about 35 kDa on SDS-PAGE; also called 抗BCMA纳米抗体; not shown: Fc tag
